Data: the supplement of paper PMC10065799, “High-throughput profiling of sequence recognition by tyrosine kinases and SH2 domains using bacterial peptide display” (eLife, 2023)

Legend:
SHP2-C SH2 = test: SH2 binding enrichment of the phosphorylated peptide, bacterial display (enrichment ratio); higher = better substrate or ligand; peptides without Tyr show the background
c-Src SH2 = test: as above
Grb2 SH2 = Grb2 SH2 (UniProt P62993); test: as above
FGFR1 = FGFR1 (UniProt P11362); test: phosphorylation enrichment, bacterial display (enrichment ratio); higher = better substrate or ligand; peptides without Tyr show the background
EPHB1 = EPHB1 (UniProt P54762); test: as above
Fes = Fes (UniProt P07332); test: as above
Fer (mouse) = test: as above
Fyn = Fyn (UniProt P06241); test: as above
Jak2 = Jak2 (UniProt O60674); test: as above
Hck = Hck (UniProt P08631); test: as above
AncSZ = test: as above
c-Abl (mouse) = test: as above
FGFR3 = FGFR3 (UniProt P22607); test: as above
MERTK = MERTK (UniProt Q12866); test: as above
c-Src = test: as above
EPHB2 = EPHB2 (UniProt P29323); test: as above
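For SH2 binding enrichment of the phosphorylated peptide, bacterial display in this document: peptide library displayed on the E. coli surface as eCPX fusions, selected cells deep-sequenced, score is each peptide's frequency after selection divided by its frequency in the input.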
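For phosphorylation enrichment, bacterial display in this document: 11-residue human phosphosite peptides and single-mutation variants displayed on the E. coli surface, counted by deep sequencing, each peptide's frequency after selection divided by its frequency in the unselected input library; frequency after pTyr selection over input frequency; kinase dosed for 20-30% of maximal phosphorylation in three min.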

Fyn, sequence (P06241 whole entry, looked up): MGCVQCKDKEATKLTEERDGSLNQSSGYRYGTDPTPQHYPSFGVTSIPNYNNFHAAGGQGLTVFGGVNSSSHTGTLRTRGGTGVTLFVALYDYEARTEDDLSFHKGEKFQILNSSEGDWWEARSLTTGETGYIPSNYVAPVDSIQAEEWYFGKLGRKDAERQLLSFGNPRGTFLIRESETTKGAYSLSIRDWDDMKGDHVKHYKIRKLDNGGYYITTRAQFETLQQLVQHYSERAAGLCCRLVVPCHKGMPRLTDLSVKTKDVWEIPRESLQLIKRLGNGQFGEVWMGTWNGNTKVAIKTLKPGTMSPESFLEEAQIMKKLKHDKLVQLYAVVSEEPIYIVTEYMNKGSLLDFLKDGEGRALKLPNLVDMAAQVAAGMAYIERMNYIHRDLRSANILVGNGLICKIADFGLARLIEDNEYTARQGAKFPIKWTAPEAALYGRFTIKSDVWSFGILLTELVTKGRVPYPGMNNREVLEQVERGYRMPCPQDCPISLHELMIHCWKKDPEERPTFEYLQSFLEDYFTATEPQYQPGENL
FGFR1, sequence (P11362 whole entry, looked up): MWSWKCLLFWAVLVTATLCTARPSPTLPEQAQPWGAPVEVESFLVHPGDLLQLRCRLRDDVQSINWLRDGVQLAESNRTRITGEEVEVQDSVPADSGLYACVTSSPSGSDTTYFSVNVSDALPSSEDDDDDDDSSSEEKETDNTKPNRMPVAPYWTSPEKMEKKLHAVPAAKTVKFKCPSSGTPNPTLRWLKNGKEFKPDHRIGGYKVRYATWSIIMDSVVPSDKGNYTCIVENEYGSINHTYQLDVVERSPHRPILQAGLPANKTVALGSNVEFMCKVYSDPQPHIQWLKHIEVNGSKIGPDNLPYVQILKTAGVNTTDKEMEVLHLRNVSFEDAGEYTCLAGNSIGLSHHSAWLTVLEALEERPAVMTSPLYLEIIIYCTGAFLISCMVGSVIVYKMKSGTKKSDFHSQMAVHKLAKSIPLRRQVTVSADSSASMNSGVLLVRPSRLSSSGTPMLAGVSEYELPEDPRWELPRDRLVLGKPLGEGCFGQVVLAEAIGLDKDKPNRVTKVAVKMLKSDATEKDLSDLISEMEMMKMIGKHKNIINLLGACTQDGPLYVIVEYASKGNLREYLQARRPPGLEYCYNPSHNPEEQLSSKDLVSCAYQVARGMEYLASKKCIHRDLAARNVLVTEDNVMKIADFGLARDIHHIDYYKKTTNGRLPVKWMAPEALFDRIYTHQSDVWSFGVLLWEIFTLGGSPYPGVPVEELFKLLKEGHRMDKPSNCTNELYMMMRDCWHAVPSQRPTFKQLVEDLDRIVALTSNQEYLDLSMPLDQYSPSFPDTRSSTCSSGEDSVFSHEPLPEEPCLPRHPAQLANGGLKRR
EPHB1, sequence (P54762 whole entry, looked up): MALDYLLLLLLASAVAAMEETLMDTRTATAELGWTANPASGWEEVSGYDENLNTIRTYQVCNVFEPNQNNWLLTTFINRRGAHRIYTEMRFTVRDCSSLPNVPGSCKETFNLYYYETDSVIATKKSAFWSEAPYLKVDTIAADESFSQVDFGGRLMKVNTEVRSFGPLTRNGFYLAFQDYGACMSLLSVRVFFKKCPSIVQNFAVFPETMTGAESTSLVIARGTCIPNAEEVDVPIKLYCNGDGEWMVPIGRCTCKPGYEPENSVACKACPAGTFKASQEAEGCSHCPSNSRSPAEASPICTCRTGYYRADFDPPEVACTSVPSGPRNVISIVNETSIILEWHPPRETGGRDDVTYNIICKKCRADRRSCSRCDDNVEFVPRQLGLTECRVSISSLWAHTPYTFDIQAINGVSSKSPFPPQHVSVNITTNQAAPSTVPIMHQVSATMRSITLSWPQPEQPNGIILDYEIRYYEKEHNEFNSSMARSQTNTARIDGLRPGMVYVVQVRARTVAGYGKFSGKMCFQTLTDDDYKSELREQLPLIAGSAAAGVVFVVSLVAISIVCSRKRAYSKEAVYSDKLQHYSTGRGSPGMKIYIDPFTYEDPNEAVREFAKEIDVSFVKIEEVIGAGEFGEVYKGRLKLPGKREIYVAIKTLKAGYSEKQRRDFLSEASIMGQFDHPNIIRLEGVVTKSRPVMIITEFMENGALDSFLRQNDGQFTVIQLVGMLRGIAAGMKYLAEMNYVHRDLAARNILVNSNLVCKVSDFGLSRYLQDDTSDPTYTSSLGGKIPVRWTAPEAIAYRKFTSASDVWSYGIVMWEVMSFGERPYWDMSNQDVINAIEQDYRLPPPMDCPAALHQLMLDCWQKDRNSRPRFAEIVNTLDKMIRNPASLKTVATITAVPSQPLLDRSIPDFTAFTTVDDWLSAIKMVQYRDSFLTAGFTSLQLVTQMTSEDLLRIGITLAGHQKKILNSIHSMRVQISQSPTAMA
FGFR3, sequence (P22607 whole entry, looked up): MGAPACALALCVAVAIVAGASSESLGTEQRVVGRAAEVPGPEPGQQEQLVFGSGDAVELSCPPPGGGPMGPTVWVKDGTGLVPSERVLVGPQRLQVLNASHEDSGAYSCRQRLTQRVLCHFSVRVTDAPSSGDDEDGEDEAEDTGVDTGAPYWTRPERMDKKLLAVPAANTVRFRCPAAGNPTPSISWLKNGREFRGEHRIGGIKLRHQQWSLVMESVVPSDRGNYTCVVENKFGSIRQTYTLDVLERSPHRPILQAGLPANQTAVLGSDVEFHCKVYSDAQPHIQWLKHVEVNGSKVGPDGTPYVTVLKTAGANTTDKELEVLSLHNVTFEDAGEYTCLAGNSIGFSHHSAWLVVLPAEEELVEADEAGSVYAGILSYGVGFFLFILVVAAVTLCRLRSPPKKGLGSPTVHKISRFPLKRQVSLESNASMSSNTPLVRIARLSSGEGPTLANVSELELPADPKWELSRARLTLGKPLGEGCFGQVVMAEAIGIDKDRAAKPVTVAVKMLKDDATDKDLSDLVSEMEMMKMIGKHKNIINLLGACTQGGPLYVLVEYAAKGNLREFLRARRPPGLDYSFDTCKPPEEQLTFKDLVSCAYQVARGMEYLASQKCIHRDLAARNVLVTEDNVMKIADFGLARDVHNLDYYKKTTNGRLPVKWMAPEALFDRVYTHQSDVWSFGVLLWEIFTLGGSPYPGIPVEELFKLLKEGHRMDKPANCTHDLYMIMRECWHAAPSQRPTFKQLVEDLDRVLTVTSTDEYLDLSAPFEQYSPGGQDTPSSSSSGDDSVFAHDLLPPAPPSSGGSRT
Fes, sequence (P07332 whole entry, looked up): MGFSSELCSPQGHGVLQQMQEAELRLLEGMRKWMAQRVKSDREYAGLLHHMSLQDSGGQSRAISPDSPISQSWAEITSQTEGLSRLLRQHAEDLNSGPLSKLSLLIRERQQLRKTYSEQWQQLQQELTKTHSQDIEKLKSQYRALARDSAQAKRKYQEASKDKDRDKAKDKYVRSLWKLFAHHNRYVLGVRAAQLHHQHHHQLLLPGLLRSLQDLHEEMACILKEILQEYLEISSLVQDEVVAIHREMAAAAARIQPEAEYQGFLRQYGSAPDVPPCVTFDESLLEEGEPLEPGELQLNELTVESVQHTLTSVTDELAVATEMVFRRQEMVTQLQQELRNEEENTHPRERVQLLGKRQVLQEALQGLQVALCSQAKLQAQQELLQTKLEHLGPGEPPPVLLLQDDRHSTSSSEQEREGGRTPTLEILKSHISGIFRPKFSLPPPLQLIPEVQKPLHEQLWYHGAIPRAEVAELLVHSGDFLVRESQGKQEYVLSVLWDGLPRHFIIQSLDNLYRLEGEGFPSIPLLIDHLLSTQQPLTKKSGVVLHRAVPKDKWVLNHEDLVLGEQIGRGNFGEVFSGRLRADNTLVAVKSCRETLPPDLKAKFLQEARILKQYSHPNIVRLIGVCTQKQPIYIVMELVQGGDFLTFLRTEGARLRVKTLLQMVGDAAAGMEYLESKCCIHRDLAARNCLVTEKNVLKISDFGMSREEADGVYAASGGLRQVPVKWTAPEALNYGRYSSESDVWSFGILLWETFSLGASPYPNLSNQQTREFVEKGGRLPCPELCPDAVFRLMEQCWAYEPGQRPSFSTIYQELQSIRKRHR
MERTK, sequence (Q12866 whole entry, looked up): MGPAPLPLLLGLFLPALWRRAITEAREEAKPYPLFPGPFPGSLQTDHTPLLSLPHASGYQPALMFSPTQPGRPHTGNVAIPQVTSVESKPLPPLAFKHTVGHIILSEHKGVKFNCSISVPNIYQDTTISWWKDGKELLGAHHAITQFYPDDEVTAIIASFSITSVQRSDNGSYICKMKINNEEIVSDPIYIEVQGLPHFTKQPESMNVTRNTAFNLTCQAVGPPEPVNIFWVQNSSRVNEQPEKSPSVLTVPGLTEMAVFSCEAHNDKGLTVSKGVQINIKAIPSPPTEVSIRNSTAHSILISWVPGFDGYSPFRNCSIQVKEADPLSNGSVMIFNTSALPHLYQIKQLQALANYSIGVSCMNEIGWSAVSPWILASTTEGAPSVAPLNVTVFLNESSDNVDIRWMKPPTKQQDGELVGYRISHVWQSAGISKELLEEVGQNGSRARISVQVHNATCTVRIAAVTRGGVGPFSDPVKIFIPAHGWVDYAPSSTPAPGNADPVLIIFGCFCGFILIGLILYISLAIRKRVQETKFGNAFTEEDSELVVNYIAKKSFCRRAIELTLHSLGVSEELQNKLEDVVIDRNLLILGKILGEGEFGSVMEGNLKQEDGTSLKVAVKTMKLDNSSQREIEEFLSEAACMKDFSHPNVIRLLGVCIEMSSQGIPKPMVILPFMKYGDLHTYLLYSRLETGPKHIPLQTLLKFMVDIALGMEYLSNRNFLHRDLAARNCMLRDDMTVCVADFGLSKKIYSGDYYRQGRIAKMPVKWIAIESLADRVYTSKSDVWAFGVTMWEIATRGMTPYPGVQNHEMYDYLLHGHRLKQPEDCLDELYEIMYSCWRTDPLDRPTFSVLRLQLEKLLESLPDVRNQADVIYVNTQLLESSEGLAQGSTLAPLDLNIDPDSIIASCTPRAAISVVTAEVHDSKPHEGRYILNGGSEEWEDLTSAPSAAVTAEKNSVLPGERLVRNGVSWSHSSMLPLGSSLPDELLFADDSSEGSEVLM

| Sequence | SH2 binding enrichment (SHP2-C SH2) | SH2 binding enrichment (c-Src SH2) | SH2 binding enrichment (Grb2 SH2) | phosphorylation enrichment (FGFR1) | phosphorylation enrichment (EPHB1) | phosphorylation enrichment (Fes) | phosphorylation enrichment (Fer (mouse)) | phosphorylation enrichment (Fyn) | phosphorylation enrichment (Jak2) | phosphorylation enrichment (Hck) | phosphorylation enrichment (AncSZ) | phosphorylation enrichment (c-Abl (mouse)) | phosphorylation enrichment (FGFR3) | phosphorylation enrichment (MERTK) | phosphorylation enrichment (c-Src) | phosphorylation enrichment (EPHB2) |
| --- | --- | --- | --- | --- | --- | --- | --- | --- | --- | --- | --- | --- | --- | --- | --- | --- |
| ERIELYELDKK [PMM2_Y145_F144L] | 0.635 | 0.487 | 0.803 | 0.481 | 0.664 | 1.1 | 0.506 | 0.586 | 0.887 | 0.574 | 1.18 | 0.641 | 0.673 | 0.568 | 0.615 | 0.589 |
| RQRTAYFSLDT [CDH1_Y68] | 11.3 | 1.74 | 0.928 | 0.586 | 0.426 | 0.767 | 0.414 | 0.38 | 0.691 | 0.357 | 0.669 | 0.752 | 0.504 | 0.535 | 0.533 | 0.293 |
| LPHVIYCRLWR [SMAD2_Y128] | 0.723 | 0.679 | 0.991 | 0.414 | 1.76 | 0.814 | 0.434 | 1.66 | 0.822 | 2.31 | 1.05 | 1.47 | 0.555 | 0.871 | 2.05 | 0.758 |
| KDFTKYVAYIE [KDM4B_Y31_N29T] | 2.42 | 0.608 | 0.966 | 0.604 | 0.651 | 1.07 | 0.434 | 0.541 | 0.921 | 0.558 | 0.864 | 0.679 | 0.734 | 0.465 | 0.523 | 0.584 |
| IDLEKYKLLPE [DHFR_Y157] | 0.718 | 0.486 | 0.844 | 0.546 | 0.528 | 1.2 | 0.51 | 0.511 | 0.92 | 0.433 | 0.956 | 0.775 | 0.683 | 0.484 | 0.39 | 0.738 |
| EFGEVYKGTLK [EPHA2_Y628_M631T] | 0.393 | 0.473 | 0.808 | 0.386 | 0.539 | 0.549 | 0.448 | 0.373 | 0.425 | 0.398 | 0.603 | 0.521 | 0.426 | 0.362 | 0.376 | 0.409 |
| LAAPKYKLNVD [SMARCA2_Y1190_A1188P] | 0.592 | 0.325 | 0.713 | 0.258 | 0.205 | 0.961 | 0.291 | 0.546 | 0.353 | 0.551 | 0.46 | 0.422 | 0.518 | 0.346 | 0.44 | 0.307 |
| NGVSYYINLCQ [IGF2R_Y2025] | 0.488 | 0.466 | 0.717 | 0.525 | 0.787 | 1.38 | 0.548 | 0.449 | 1.38 | 0.581 | 1.19 | 0.916 | 1.04 | 0.417 | 0.374 | 0.548 |
| RYMELYDLNRD [BBS2_Y648] | 0.8 | 5.58 | 0.989 | 1.04 | 1.52 | 1.41 | 1.14 | 1.67 | 1.4 | 1.89 | 1.41 | 0.993 | 1.24 | 1.32 | 4.49 | 1.05 |
| FLGKGYSDGGC [MC4R_Y35_S30F] | 0.832 | 0.509 | 1.1 | 0.672 | 0.503 | 1.14 | 0.542 | 0.548 | 0.95 | 0.579 | 0.876 | 0.818 | 0.623 | 0.552 | 0.592 | 0.567 |
| IYHLSYHHNCE [PDE6B_Y227_L228H] | 1.19 | 0.833 | 1.09 | 1.32 | 0.703 | 1.34 | 0.671 | 2.15 | 1.03 | 1.51 | 1.29 | 2.09 | 1.17 | 3.55 | 2.29 | 0.602 |
| FFLGKYLQEVL [KLB_Y910_YF] | 1.71 | 1.29 | 1.99 | 0.436 | 0.486 | 1.19 | 0.441 | 0.342 | 0.911 | 0.42 | 0.963 | 0.665 | 0.498 | 0.391 | 0.469 | 0.474 |
| SFCFRYRCAAQ [SUMF1_Y344_R349Q_YF] | 2.02 | 1.45 | 1.52 | 0.47 | 0.427 | 0.762 | 0.402 | 0.411 | 0.745 | 0.514 | 1.25 | 0.682 | 0.463 | 0.553 | 0.555 | 0.523 |
| QRCFVYFFSFL [PTEN_Y176_R173C_YF] | 1.27 | 1.09 | 2 | 0.765 | 1.13 | 2.21 | 1.06 | 1.47 | 2.19 | 0.65 | 1.48 | 1.3 | 1.16 | 0.69 | 1.48 | 0.526 |
| HFGCVYRGTLL [MET_Y1093_H1094R] | 0.963 | 0.565 | 0.868 | 0.884 | 1.04 | 1.66 | 0.702 | 0.862 | 1.77 | 0.607 | 1.44 | 1.28 | 1.06 | 0.573 | 1.97 | 0.87 |
| RAKLFYQEVPA [METTL11B_Y76] | 0.789 | 0.992 | 0.651 | 2.88 | 2.91 | 1.02 | 1.64 | 0.716 | 0.547 | 1.67 | 1.95 | 0.513 | 2.39 | 6.6 | 0.385 | 1.9 |
| GGQVFHNSEFG [FLT4_Y1333_Y1333H_YF] | 0.714 | 0.505 | 0.761 | 0.448 | 0.4 | 0.668 | 0.375 | 0.424 | 0.534 | 0.379 | 0.593 | 0.531 | 0.572 | 0.395 | 0.377 | 0.451 |

| Sequence | SH2 binding enrichment (SHP2-C SH2) | SH2 binding enrichment (c-Src SH2) | SH2 binding enrichment (Grb2 SH2) | phosphorylation enrichment (FGFR1) | phosphorylation enrichment (EPHB1) | phosphorylation enrichment (Fes) | phosphorylation enrichment (Fer (mouse)) | phosphorylation enrichment (Fyn) | phosphorylation enrichment (Jak2) | phosphorylation enrichment (Hck) | phosphorylation enrichment (AncSZ) | phosphorylation enrichment (c-Abl (mouse)) | phosphorylation enrichment (FGFR3) | phosphorylation enrichment (MERTK) | phosphorylation enrichment (c-Src) | phosphorylation enrichment (EPHB2) |
| --- | --- | --- | --- | --- | --- | --- | --- | --- | --- | --- | --- | --- | --- | --- | --- | --- |
| DFFDLYGGKKF [PTPN11_Y66_E69K_YF] | 0.775 | 0.428 | 0.967 | 0.57 | 0.44 | 1.02 | 0.499 | 3.04 | 0.974 | 7.26 | 1.01 | 0.69 | 0.616 | 0.489 | 3.49 | 0.519 |
| CQAHGYFCQLI [STK11_Y156] | 1.17 | 0.984 | 1.2 | 0.479 | 0.413 | 0.836 | 0.402 | 0.405 | 0.751 | 0.436 | 0.873 | 0.514 | 0.609 | 0.407 | 0.428 | 0.546 |
| ASRKFYAMKIL [AKT3_Y174_G171R_YF] | 0.679 | 0.543 | 0.817 | 0.578 | 0.459 | 0.617 | 0.362 | 0.45 | 0.7 | 0.417 | 0.725 | 0.441 | 0.518 | 0.441 | 0.464 | 0.428 |
| LKGQVYILGWE [ASS1_Y359_R363W] | 0.827 | 0.684 | 1.01 | 0.544 | 0.655 | 1.4 | 0.642 | 0.575 | 1.14 | 0.508 | 1.14 | 0.804 | 0.81 | 0.428 | 0.575 | 0.57 |
| VHSGTYQVMVR [MYBPC3_Y1043_T1046M] | 0.628 | 1.56 | 0.94 | 0.456 | 2.04 | 0.637 | 0.343 | 0.539 | 0.467 | 1.98 | 0.711 | 0.489 | 0.468 | 1.27 | 0.988 | 0.648 |
| APGNAYGDAGY [SYP_Y250_D248N] | 0.52 | 0.441 | 0.681 | 0.428 | 0.515 | 0.77 | 0.452 | 0.418 | 0.851 | 0.474 | 0.731 | 0.607 | 0.512 | 0.423 | 0.497 | 0.451 |
| SLAARYFNWVC [FLT4_Y1230_S1235C_YF] | 1.59 | 1.43 | 2.08 | 0.661 | 0.61 | 1.2 | 0.546 | 0.38 | 0.997 | 0.435 | 1.21 | 0.899 | 0.822 | 0.514 | 0.397 | 0.656 |
| HKLSSYEFDFE [BTK_Y40_Y39S_YF] | 0.719 | 3 | 0.974 | 0.889 | 0.902 | 1.51 | 0.664 | 0.777 | 2.13 | 0.565 | 1.83 | 1.43 | 0.844 | 0.865 | 1.09 | 0.75 |
| CLSHCYFSQIR [MCM3AP_Y873_L870S] | 1.15 | 1.23 | 1.22 | 0.573 | 0.41 | 0.758 | 0.388 | 0.354 | 0.623 | 0.363 | 0.727 | 0.484 | 0.607 | 0.485 | 0.432 | 0.497 |
| TKDTFYQQPMF [GBA_Y451_K452Q] | 0.637 | 0.902 | 0.793 | 0.605 | 0.583 | 0.805 | 2.41 | 0.664 | 0.648 | 0.91 | 1.07 | 3.38 | 0.589 | 4.31 | 0.639 | 2.01 |
| PAGSGYPAFLG [ATP6V1A_Y374_D371G_YF] | 0.778 | 0.538 | 0.828 | 0.737 | 0.634 | 1.13 | 0.512 | 0.478 | 0.687 | 0.626 | 1 | 0.869 | 0.794 | 0.469 | 0.735 | 1.17 |
| WISNRYLDFSS [PRPH2_Y184] | 0.688 | 0.62 | 0.871 | 0.564 | 0.505 | 0.946 | 0.499 | 0.524 | 0.894 | 0.577 | 0.961 | 0.793 | 0.676 | 0.54 | 0.705 | 0.535 |
| RSGIFYKPESL [L2HGDH_Y103_H98R_YF] | 0.894 | 0.572 | 0.913 | 0.572 | 0.547 | 0.866 | 0.458 | 0.512 | 0.647 | 0.716 | 0.994 | 0.706 | 0.702 | 0.499 | 0.751 | 0.567 |
| ELCSEYHKSRK [SPINK5_Y440_R441H] | 0.679 | 0.484 | 0.824 | 0.513 | 0.405 | 1.02 | 0.507 | 0.487 | 0.945 | 0.442 | 0.73 | 0.999 | 0.53 | 0.532 | 0.633 | 0.412 |
| HLVLNYGVCFC [JAK2_Y613_V617F] | 1.15 | 0.757 | 0.884 | 1.2 | 1.67 | 2.32 | 0.982 | 1.11 | 1.53 | 1.04 | 2.91 | 1.29 | 1.77 | 0.575 | 0.914 | 2.33 |
| PLDGEYLTLQI [TP53_Y327_F328L] | 0.555 | 0.504 | 0.522 | 1.64 | 1.46 | 2.31 | 1.08 | 1.08 | 2.48 | 0.927 | 2.75 | 2.16 | 2.15 | 0.764 | 1.14 | 1.23 |
